Laboratory results: patent publication US20210317213A1 (AMBRX, published 2021)

Columns and labels:
[1] = biological target: T1, human CD3 (human, UniProt P07766 23-207); assay: summary table; cell binding EC50, human PBMC
T1 construct: whole, on cells; also called CD3 on human T-cells

[2] = biological target: Folate receptor-alpha (FOLR1) (human) (UniProt P15328); assay: cell binding, SKOV-3 cells with 50 nM SFA; through the folate moiety
[3] = biological target: Folate receptor-alpha (FOLR1) (human) (UniProt P15328); assay: summary table; cell binding through the folate moiety
[4] = biological target: T1, human CD3; assay: cell binding, human PBMC
[5] = biological target: Folate receptor-alpha (FOLR1) (human) (UniProt P15328); assay: summary table; FRα affinity over CD3 affinity
[6] = biological target: T1, human CD3; assay: cell binding, human T-cells; set-up: Bmax: unit not given here
[7] = biological target: Folate receptor-alpha (FOLR1) (human) (UniProt P15328); assay: cell binding, FOLRα-expressing KB cells; through the folate moiety
[8] = biological target: T1, human CD3; assay: cell binding, activated human PBMC
[9] = biological target: T2, cyno CD3 (cyno (cynomolgus monkey), UniProt Q95LI5 22-198); assay: cell binding, activated cyno PBMC
T2 construct: whole, on cells; also called CD3 on Cynomolgus T-cells

[10] = biological target: T1, human CD3; assay: cell binding, human CD3, 50 nM SFA present
[11] = biological target: T2, cyno CD3; assay: cell binding, cynomolgus T-cells
[12] = biological target: T1, human CD3; assay: cell binding, human CD3 (activated human PBMC); human CD3 (first number of the cell)
Description: (§1) Testing for CD3 binding with activated human and cyno PBMC: To distinguish between the humanized anti-CD3 antibodies generated, binding to human CD3 was tested using activated human PBMCs (n=2). The activation of PBMCs and subsequent fluorescence-based CD3 binding assays were followed as described previously (see for example, Angew Chem Int Ed Engl, 52(46):12101-12104, 2013). […] The binding of the remaining 6 humanized antibodies to both human and cyno CD3 using activated human and cyno PBMCs, respectively, was titrated. […] The six (6) humanized anti-CD3 antibodies were obtained as follows: Fab1, Fab2 and Fab3 wildtype were generated by combination of LC ((vL1.2+CL); (SEQ.ID. NO:7)) and HC ((vH1.2+CH1); (SEQ.ID. NO:1)), ((vH1.1+CH1); (SEQ.ID. NO:2)) and ((vH1.0+CH1); (SEQ.ID. NO:3)) respectively. Fab4, Fab 5 and Fab6 wildtype were generated by combination of LC ((vL1.1+CL); (SEQ.ID. NO:8)) and HC ((vH1.2+CH1); (SEQ.ID. NO:1)), ((vH1.1+CH1); (SEQ.ID. NO:2)) and ((vH1.0+CH1); (SEQ.ID. NO:3)) respectively.
(§2) Binding of Folate-conjugated Fabs to human and cyno CD3: Binding of E. coli produced and Folate-conjugated low-affinity variants of humanized anti-CD3 Fabs was performed as described in the above Examples.

[13] = biological target: T2, cyno CD3; assay: cell binding, cyno CD3 (activated cyno PBMC); cyno CD3 (second number of the cell)
Description: as §1, §2

[14] = biological target: T1, human CD3; assay: cell binding, activated human PBMC; E. coli protein
[15] = biological target: T2, cyno CD3; assay: cell binding, activated cyno PBMC; E. coli protein

T2 sequence (Q95LI5 22-198): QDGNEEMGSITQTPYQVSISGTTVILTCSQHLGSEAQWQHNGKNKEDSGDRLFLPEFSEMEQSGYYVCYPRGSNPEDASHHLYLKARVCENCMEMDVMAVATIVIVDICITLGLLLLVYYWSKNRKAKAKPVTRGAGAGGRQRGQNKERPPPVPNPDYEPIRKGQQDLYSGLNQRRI
T1 sequence (P07766 23-207): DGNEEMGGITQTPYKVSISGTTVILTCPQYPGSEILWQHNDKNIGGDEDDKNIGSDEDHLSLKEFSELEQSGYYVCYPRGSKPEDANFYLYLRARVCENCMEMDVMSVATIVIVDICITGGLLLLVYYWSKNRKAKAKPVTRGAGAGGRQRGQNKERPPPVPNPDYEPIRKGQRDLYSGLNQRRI
Sequence of Folate receptor-alpha (FOLR1) (human) (P15328 25-234): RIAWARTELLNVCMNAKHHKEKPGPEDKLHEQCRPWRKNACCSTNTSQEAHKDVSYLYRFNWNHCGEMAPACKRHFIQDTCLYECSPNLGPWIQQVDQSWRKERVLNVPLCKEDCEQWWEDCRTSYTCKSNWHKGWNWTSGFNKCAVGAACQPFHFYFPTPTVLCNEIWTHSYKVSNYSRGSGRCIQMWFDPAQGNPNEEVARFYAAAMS

B1: Fab1-HK129-LK172-BiFolate (Fab, V domains shown)
VH: EVQLVESGGGLVQPGGSLRLSCAASGFTFNTYAMNWVRQAPGKGLEWVARIRSKYNNYATYYADSVKDRFTISRDDSKNILYLQMNSLKTEDTAVYYCVRHGNFGNSYVSWFAYWGQGTLVTVSS
VL: QAVVTQEPSLTVSPGGTVTLTCRSSTGAVTTSNYANWVQQKPGQAPRGLIGGTNKRAPGTPARFSGSLLGGKAALTLSGAQPEDEAEYYCALWYSNLWVFGGGTKLTVLG
modifications: pAF at LK172 (Kabat) conjugated to folate (oxime); pAF at HK129 (Kabat) conjugated to folate (oxime)
notes: From E. coli; carries two folates
CD3 binding affinity [1]: 2.85 nM
EC50 [2]: 10 nM
Fold increase binding (vs Fab1-HK129-Folate) [2]: 4.4 fold
FRα binding affinity [3]: 10 nM
EC50 [4]: 2.85 nM
Fold increase binding (vs Fab1-HK129-Folate) [4]: 0.86 fold
Affinity ratio (FRα:CD3) [5]: 3.5

B2: Fab1-HK129-5KPEG-Folate (Fab, V domains shown)
VH: EVQLVESGGGLVQPGGSLRLSCAASGFTFNTYAMNWVRQAPGKGLEWVARIRSKYNNYATYYADSVKDRFTISRDDSKNILYLQMNSLKTEDTAVYYCVRHGNFGNSYVSWFAYWGQGTLVTVSS
VL: QAVVTQEPSLTVSPGGTVTLTCRSSTGAVTTSNYANWVQQKPGQAPRGLIGGTNKRAPGTPARFSGSLLGGKAALTLSGAQPEDEAEYYCALWYSNLWVFGGGTKLTVLG
modifications: pAF at HK129 (Kabat) conjugated to a bifunctional linker carrying folate and a linear 5K PEG (oxime)
notes: From E. coli; also called Fab1-5KPEG-Folate
CD3 binding affinity [1]: 5 nM
Bmax [6]: 23400
Kd [6]: 2.34 nM
Bmax [7]: 134000
Kd [7]: 3.69 nM
EC50 [8]: 5 nM
Fold reduction in binding (vs Fab1-HK129-Folate) [8]: 1.9 fold
FRα binding affinity [3]: 129 nM
EC50 [9]: 2.46 nM
Fold reduction in binding (vs Fab1-HK129-Folate) [9]: 1.7 fold
EC50 [10]: 5.27 nM
Affinity ratio (FRα:CD3) [5]: 26
Bmax [11]: 19900
Kd [11]: 3.31 nM

B3: Fab1-HK129-20KPEG-Folate (Fab, V domains shown)
VH: EVQLVESGGGLVQPGGSLRLSCAASGFTFNTYAMNWVRQAPGKGLEWVARIRSKYNNYATYYADSVKDRFTISRDDSKNILYLQMNSLKTEDTAVYYCVRHGNFGNSYVSWFAYWGQGTLVTVSS
VL: QAVVTQEPSLTVSPGGTVTLTCRSSTGAVTTSNYANWVQQKPGQAPRGLIGGTNKRAPGTPARFSGSLLGGKAALTLSGAQPEDEAEYYCALWYSNLWVFGGGTKLTVLG
modifications: pAF at HK129 (Kabat) conjugated to a bifunctional linker carrying folate and a linear 20K PEG (oxime)
notes: From E. coli
CD3 binding affinity [1]: 12 nM
EC50 [8]: 12 nM
Fold reduction in binding (vs Fab1-HK129-Folate) [8]: 4.3 fold
FRα binding affinity [3]: 310 nM
EC50 [9]: 11.8 nM
Fold reduction in binding (vs Fab1-HK129-Folate) [9]: 8.4 fold
Affinity ratio (FRα:CD3) [5]: 26

B4: Fab8-HK129-Folate (Fab, V domains shown)
VH: EVQLVESGGGLVQPGGSLRLSCAASGFTFNTYAMNWVRQAPGKGLEWVGRIRSKYNNYATYYADSVKDRFTISRDDSKNILYLQMNSLKTEDTAVYYCVRHGNFGNSYVSWFAYWGQGTLVTVSS
VL: QAVVTQEPSLTVSPGGTVTLTCRSSTGAVTTSNYANWFQQKPGQAPRGLIGGTNKRAPGVPARFSGSLLGGKAALTLSGAQPEDEAEYYCALWYSNLWVFGGGTKLTVLG
modifications: pAF at HK129 (Kabat) conjugated to folate (oxime)
notes: also called Fab8 (E. coli, folate-conjugated)
EC50 [12]: 78.3 nM
EC50 [13]: 130 nM

B5: Fab1-HA114-Folate (Fab, V domains shown)
VH: EVQLVESGGGLVQPGGSLRLSCAASGFTFNTYAMNWVRQAPGKGLEWVARIRSKYNNYATYYADSVKDRFTISRDDSKNILYLQMNSLKTEDTAVYYCVRHGNFGNSYVSWFAYWGQGTLVTVSS
VL: QAVVTQEPSLTVSPGGTVTLTCRSSTGAVTTSNYANWVQQKPGQAPRGLIGGTNKRAPGTPARFSGSLLGGKAALTLSGAQPEDEAEYYCALWYSNLWVFGGGTKLTVLG
modifications: pAF at HA114 (Kabat) conjugated to folate (oxime)
notes: From E. coli; Fab-folate conjugate
EC50 [14]: 1.27 nM
EC50 [15]: 1.37 nM

B6: Fab9-HK129-Folate (Fab, V domains shown)
VH: EVQLVESGGGLVQPGGSLRLSCAASGFTFNTYAMNWVRQAPGKGLEWVGRIRSKYNNYATYYADSVKDRFTISRDDSKNSLYLQMNSLKTEDTAVYYCVRHGNFGNSYVSWFAYWGQGTLVTVSS
VL: QAVVTQEPSLTVSPGGTVTLTCRSSTGAVTTSNYANWFQQKPGQAPRGLIGGTNKRAPGVPARFSGSLLGGKAALTLSGAQPEDEAEYYCALWYSNLWVFGGGTKLTVLG
modifications: pAF at HK129 (Kabat) conjugated to folate (oxime)
notes: also called Fab9 (E. coli, folate-conjugated)
EC50 [12]: 69.1 nM
EC50 [13]: 93.1 nM

B7: Fab1-HS115-pAF1 (Fab, V domains shown)
VH: EVQLVESGGGLVQPGGSLRLSCAASGFTFNTYAMNWVRQAPGKGLEWVARIRSKYNNYATYYADSVKDRFTISRDDSKNILYLQMNSLKTEDTAVYYCVRHGNFGNSYVSWFAYWGQGTLVTVSS
VL: QAVVTQEPSLTVSPGGTVTLTCRSSTGAVTTSNYANWVQQKPGQAPRGLIGGTNKRAPGTPARFSGSLLGGKAALTLSGAQPEDEAEYYCALWYSNLWVFGGGTKLTVLG
modifications: para-acetyl-phenylalanine (pAF) at HS115 (Kabat)
notes: From E. coli; also called Fab1 HS115pAF, unconjugated
EC50 [14]: 1.26 nM
EC50 [15]: 1.76 nM

B8: Fab7-HK129-Folate (Fab, V domains shown)
VH: EVQLVESGGGLVQPGGSLRLSCAASGFTFNTYAMNWVRQAPGKGLEWVARIRSKYNNYATYYADSVKDRFTISRDDSKNILYLQMNSLKTEDTAVYYCARHGNFGNSYVSWFAYWGQGTLVTVSS
VL: QAVVTQEPSLTVSPGGTVTLTCRSSTGAVTTSNYANWVQQKPGQAPRGLIGGTNKRAPWVPARFSGSLLGGKAALTLSGAQPEDEAEYYCALWYSNLWVFGGGTKLTVLG
modifications: pAF at HK129 (Kabat) conjugated to folate (oxime)
notes: also called Fab7 (E. coli, folate-conjugated)
EC50 [12]: 23.4 nM
EC50 [13]: 20.2 nM

B9: Fab10-HK129-Folate (Fab, V domains shown)
VH: EVQLVESGGGLVQPGGSLRLSCAASGFTFSTYAMNWVRQAPGKGLEWVARIRSKYNNYATYYADSVKDRFTISRDDSKNILYLQMNSLKTEDTAVYYCVRHGNFGNSYVSWFAYWGQGTLVTVSS
VL: QAVVTQEPSLTVSPGGTVTLTCRSSTGAVTTSNYANWFQQKPGQAPRGLIGGTNKRAPGVPARFSGSLLGGKAALTLSGAQPEDEAEYYCALWYSNLWVFGGGTKLTVLG
modifications: pAF at HK129 (Kabat) conjugated to folate (oxime)
notes: also called Fab10 (E. coli, folate-conjugated)
EC50 [12]: 83.6 nM
EC50 [13]: 99.5 nM

B10: Fab1-HK129-LL157-pAF (Fab, V domains shown)
VH: EVQLVESGGGLVQPGGSLRLSCAASGFTFNTYAMNWVRQAPGKGLEWVARIRSKYNNYATYYADSVKDRFTISRDDSKNILYLQMNSLKTEDTAVYYCVRHGNFGNSYVSWFAYWGQGTLVTVSS
VL: QAVVTQEPSLTVSPGGTVTLTCRSSTGAVTTSNYANWVQQKPGQAPRGLIGGTNKRAPGTPARFSGSLLGGKAALTLSGAQPEDEAEYYCALWYSNLWVFGGGTKLTVLG
modifications: pAF at LL157 (Kabat); pAF at HK129 (Kabat)
notes: From E. coli; double pAF variant, unconjugated; also called Fab1-HK129pAF-LL157pAF
Bmax [6]: 27900
Kd [6]: 0.604 nM
Bmax [11]: 23400
Kd [11]: 0.955 nM

B11: Fab1-HS115-Folate (Fab, V domains shown)
VH: EVQLVESGGGLVQPGGSLRLSCAASGFTFNTYAMNWVRQAPGKGLEWVARIRSKYNNYATYYADSVKDRFTISRDDSKNILYLQMNSLKTEDTAVYYCVRHGNFGNSYVSWFAYWGQGTLVTVSS
VL: QAVVTQEPSLTVSPGGTVTLTCRSSTGAVTTSNYANWVQQKPGQAPRGLIGGTNKRAPGTPARFSGSLLGGKAALTLSGAQPEDEAEYYCALWYSNLWVFGGGTKLTVLG
modifications: pAF at HS115 (Kabat) conjugated to folate (oxime)
notes: as for B5
EC50 [14]: 1.41 nM
EC50 [15]: 1.37 nM

B12: Fab1-HA114-pAF1 (Fab, V domains shown)
VH: EVQLVESGGGLVQPGGSLRLSCAASGFTFNTYAMNWVRQAPGKGLEWVARIRSKYNNYATYYADSVKDRFTISRDDSKNILYLQMNSLKTEDTAVYYCVRHGNFGNSYVSWFAYWGQGTLVTVSS
VL: QAVVTQEPSLTVSPGGTVTLTCRSSTGAVTTSNYANWVQQKPGQAPRGLIGGTNKRAPGTPARFSGSLLGGKAALTLSGAQPEDEAEYYCALWYSNLWVFGGGTKLTVLG
modifications: para-acetyl-phenylalanine (pAF) at HA114 (Kabat)
notes: From E. coli; also called Fab1 HA114pAF, unconjugated
EC50 [14]: 1.35 nM
EC50 [15]: 1.33 nM

B13: Fab1-HK129-pAF (Fab, V domains shown)
VH: EVQLVESGGGLVQPGGSLRLSCAASGFTFNTYAMNWVRQAPGKGLEWVARIRSKYNNYATYYADSVKDRFTISRDDSKNILYLQMNSLKTEDTAVYYCVRHGNFGNSYVSWFAYWGQGTLVTVSS
VL: QAVVTQEPSLTVSPGGTVTLTCRSSTGAVTTSNYANWVQQKPGQAPRGLIGGTNKRAPGTPARFSGSLLGGKAALTLSGAQPEDEAEYYCALWYSNLWVFGGGTKLTVLG
modifications: para-acetyl-phenylalanine (pAF) at HK129 (Kabat)
notes: From E. coli; carries no folate and no PEG; also called Fab1-HK129-pAF1; anti-CD3 Fab1-HK129-pAF control
Bmax [6]: 32000
Kd [6]: 1.59 nM
EC50 [14]: 1.14 nM
EC50 [15]: 1.15 nM
EC50 [10]: 1.92 nM
Bmax [11]: 26600
Kd [11]: 2.67 nM
